Data reported in PMC1885638 (Nucleic Acids Research, 2007).
Values belong to the binder of their own block, whether it stands above or below them.

Molecular target: Human AP endonuclease 1 (human, UniProt P27695 1-318)
Experiment: pull-down

Human AP endonuclease 1, sequence (P27695 whole entry): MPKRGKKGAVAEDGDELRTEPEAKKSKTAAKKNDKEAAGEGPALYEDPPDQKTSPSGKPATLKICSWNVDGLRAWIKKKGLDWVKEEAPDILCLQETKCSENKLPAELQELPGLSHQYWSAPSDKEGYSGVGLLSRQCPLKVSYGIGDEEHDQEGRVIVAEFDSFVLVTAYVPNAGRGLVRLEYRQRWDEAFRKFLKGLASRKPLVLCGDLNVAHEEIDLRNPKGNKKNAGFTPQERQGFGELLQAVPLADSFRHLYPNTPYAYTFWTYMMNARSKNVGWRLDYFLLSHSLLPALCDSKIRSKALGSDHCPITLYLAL

binding result: binds
B1: his-Hus1 (individual subunit) (natural protein, human, UniProt O60921 1-280, looked up)
chain: MKFRAKIVDGACLNHFTRISNMIAKLAKTCTLRISPDKLNFILCDKLANGGVSMWCELEQENFFNEFQMEGVSAENNEIYLELTSENLSRALKTAQNARALKIKLTNKHFPCLTVSVELLSMSSSSRIVTHDIPIKVIPRKLWKDLQEPVVPDPDVSIYLPVLKTMKSVVEKMKNISNHLVIEANLDGELNLKIETELVCVTTHFKDLGNPPLASESTHEDRNVEHMAEVHIDIRKLLQFLAGQQVNPTKALCNIVNNKMVHFDLLHEDVSLQYFIPALS

binding result: binds
B2: his-Rad1 (individual subunit) (natural protein, human, UniProt O60671 1-282, looked up)
chain: MPLLTQQIQDEDDQYSLVASLDNVRNLSTILKAIHFREHATCFATKNGIKVTVENAKCVQANAFIQAGIFQEFKVQEESVTFRINLTVLLDCLSIFGSSPMPGTLTALRMCYQGYGYPLMLFLEEGGVVTVCKINTQEPEETLDFDFCSTNVINKIILQSEGLREAFSELDMTSEVLQITMSPDKPYFRLSTFGNAGSSHLDYPKDSDLMEAFHCNQTQVNRYKISLLKPSTKALVLSCKVSIRTDNRGFLSLQYMIRNEDGQICFVEYYCCPDEEVPESES
